Assay results taken from article PMC8352940 (Nature Communications, 2021).
Where a chain is given by its changes, count along the chain named.

B1: nCoVmab1 (antibody, V domains shown)
VH: QVQLVESGGGLVQPGGSLRLSCAASGFTVSSNYMSWVRQAPGKGLEWVSVIYSGGSTYYADSVKGRFTISRDNSKNTLYLQMNSLRAEDTAVYYCARGDGSDDYYYGMDVWGQGTTVTVSS
VL: QSVVTQPPSVSGAQGQRVFISCTGNGANIGMGYDVHWYQQLPGRAPKLLIFGNTNRPSGVPDRFSASRSGTSASLAITGLQTADEADYYCQSYDGNLRASVFGGGTKLTVL
notes: also called nCoVFab1 in IgG1 format; source: 293F cells, purified (Protein A resin)
B2: nCoVmab2 (antibody, V domains shown)
VH: B1 VH with Q1E, E6Q, L11V, G16R
VL: QAVLTQPSSVSGAPGQRVTISCTGSSSNVGAGYDVHWYQQLPGTAPKLLIYGNSNRPSGVPDRFSGSKSGTSASLAITGLQAEDEADYYCQSYDSSLSGSVFGGGTKLTVL
notes: also called nCoVFab2 in IgG1 format; source: 293F cells, purified (Protein A resin)

Target: SARS-CoV-2 RBD-Fc fusion protein (SARS-CoV-2, UniProt P0DTC2)
Experiment: ELISA
Conditions: both partners purified

| Binder | fold change in EC50 compared to wild type |
| --- | --- |
| B1 | 1 fold |
| B2 | 1 fold |
